Data: publication PMC8795569

Biological target: HA-APP (full-length, APP695 spliced isoform), P05067
Assay: ELISA

Kd: 84.7 nM
B1: MDGA1-Fc (MDGA1 extracellular domains fused to human Fc) (Fc fusion)
chain: QGVYAPAQAQIVHAGQACVVKEDNISERVYTIRESDTLVLQCLVTGHPRPQVRWTKTAGSASDKFQETSVFNETLRIERIARTQGGRYYCKAENGVGVPAIKSIRVDVQYLDEPVLTVHQTVSDVRGNFYQEKTVFLRCTVSSNPPARFIWKRGSDTLSHSQDNGVDIYEPLYTQGETKVLKLKNLRPQDYASYTCQVSVRNVCGIPDKSITFQLTNTTAPPTLKLSVNETLVVNPGENVTVQCLLTGGDPLPQLHWSHGPGPLPLGALAQGGTLSIPSVQARDSGYYNCTATNNVGNPAKKTVNLLVRSLKNATFQITPDMIKESENIQLGQDLKLSCHVDAVPQEKVNYQWFKNGKPARTSKRLLVTRNDPELPAVTSSLELIDLHFSDYGTYLCVASFPGSPVPDLSVEVNISSETVPPTISVPKGRAVVTVREGSPAELQCEVRGKPRPPVLWSRVDKEAALLPSGLALEETPDGKLRVERVSREMSGTYRCQTARYNGFNVRAREAQVQLTVHFPPEVEPSSQDVRQALGRPVLLRCSLLRGSPQRIASAVWRFKGQLLPPPPVLPAAAAEGPDHAELRLDALTRDSSGNYECSVSNDVGSATCLFQVSAKAYSPEFYFDTPNPTRSHKLSKNYSYVLQWTQREPDAVDPVLNYRLSIRQLNQHNAMVKAIPVRRVEKGQLLEYTLTDLRVPHSYEIHLTPYTTFGAGDMASRVIHYTEPINSPSLSDNTCHFEDEKICGYTQDLTDNFDWTRQNALTQNPKRSPNTGPPTDISGTPEGYYMFIETSRPRELGDRARLVSPLYNASAKFYCVSFFYHMYGKHIGSLNLLVRSRNKGTLDTHAWSLSGNKGNVWQQAHVPINPSGPFQIIFEGVRGSGYLGDIAIDDVTLKKGECPRRQMDPNKVVVMPGS
modifications: not checked
